Measurements published in patent publication US20230112794A1 (NATIONAL TAIWAN UNIVERSITY, published 2023).

Experiments:
[1] = molecular target: T1, IL-6/IL-6Rα complex (IL-6 bound to sIL-6Rα, not fused) (human, UniProt P08887 20-358; P05231 30-212); assay: ELISA, coated sIL-6Rα (50 ng/well), IL-6 (10 ng/well) added, C14mab added without washing off unbound IL-6 [b]
T1 construct: Non-covalent complex; also called IL-6/sIL-6Rα combination; IL-6/sIL-6R combination
Description: FIG. 8 illustrates the epitope of HyIL-6/C14mab interaction. (a) Differential HDX of HyIL-6 upon C14mab binding. […] (b) A scheme depicts the assay procedure (left panel). The microplates were coated with sIL-6 Rα (50 ng/well) in PBS buffer at 4° C. overnight and blocked with 1% BSA in PBS for 1 hr. Then plates were washed with PBS containing 0.05% Tween-20. Upper; without washing group, IL-6 (10 ng/well) was added for 1 hr at room temperature. Then serial dilution concentrations of C14mab were added directly for another 2 hrs. Lower; washing group, IL-6 (10 ng/well) was added for 1 hr at room temperature. After plates were washed with PBS containing 0.05% Tween-20, serial dilution concentrations of C14mab were added directly for another 1 hr. The bound C14mab was determined by ELISA. The binding results with or without washing before C14mab incubation are shown in blue and red, respectively (right panel). One representative assay of 3 is shown.
To further understand the C14mab binding mechanism in HyIL-6, we performed an indirect ELISA assay using C14mab as a detection antibody. Briefly, IL-6Rα was immobilized directly on the plate and then IL-6 was added to the IL-6Rα and allowed to bind. The unbound IL-6 was washed away and the IL-6/IL-6Rα complex was detected by C14mab (FIG. 8(b)).

[2] = molecular target: T2, recombinant human Hyper-IL-6 (HyIL-6), fusion of human sIL-6Rα and human IL-6 (human); assay: BLI (Octet), KD on HyIL-6 against KD on IL-6
T2 construct: also called human IL-6Rα/IL-6 chimera; fusion protein of sIL-6Rα/IL-6
Description: (§1) FIG. 5 illustrates the binding kinetics of C14mab. Biolayer interferometry analysis of the binding of C14mab to IL-6 (a) and HyIL-6 (b) was carried out. […] Kinetic parameters were evaluated by using a 1:1 binding model with global fitting. The experimental curves of each concentration (solid line) are shown alongside the fitted curves (dashedline). One representative set of curves is shown from three independent experiments.
(§2) Octet is based on Bio-Layer Interferometry (BLI) for measuring protein-protein interactions. BLI analyzes the interference pattern of white light reflected from two surfaces: a layer of immobilized protein on the biosensor tip and an internal reference layer. The binding between C14mab immobilized on the biosensor tip surface using Biosensor AMC tips (ForteBio, Pall Corporation) and IL-6 (R&D systems) and HyIL-6 (R&D systems) in complex was measured. Interference patterns for the binding to or dissociating from the biosensor were measured in real time to generate a response profile on the Octet® System Octet 96 Red (ForteBio, Pall Corporation). Kinetic parameters were evaluated by using a 1:1 binding model with global fitting of three independent experiments with the Octet Red analysis software.

[3] = molecular target: T2, recombinant human Hyper-IL-6 (HyIL-6), …; assay: BLI (Octet), C14mab on anti-mouse Fc capture sensor, HyIL-6 1.56-25 nM, 1:1 global fit
Description: as §1, §2

[4] = molecular target: T2, recombinant human Hyper-IL-6 (HyIL-6), …; assay: indirect ELISA, EC50 on HyIL-6 against EC50 on IL-6
Description: (§3) FIG. 4 illustrates the binding characteristics of purified C14mab. (a) The microplates were coated with human IL-6 (20 ng/well), HyIL-6 (60 ng/well), and IL-6 Ra (40 ng/well). Serial dilutions of C14mab were added for 1 hr at room temperature. The binding ELISA data is graphed with OD₄₅₀ readings and their associated binding percentages vs. log antibody concentration. Data are compiled from three independent experiments. Values represent the mean±SEM. (b) Data were normalized to maximum signal for IL-6 and HyIL-6 individually. EC₅₀ values were obtained by nonlinear regression fitting to a variable slope, four-parameter dose-response model using the GraphPad Prism software (San Diego, Calif., USA). (c) The binding of mouse HyIL-6 (60 ng/well) with C14mab was measured by ELISA as described in (a). Values represent the mean±SEM from three independent experiments.

[5] = molecular target: T3, mouse HyIL-6 (mouse IL-6/IL-6Rα complex, R&D systems) (mouse, UniProt P22272 20-357; P08505 25-211, limits assumed); assay: ELISA, coated mouse HyIL-6 (60 ng/well), serial dilution of purified C14mab [c]
T3 construct: not shown: linker, if any, is not described for the bought mouse protein
T3 sequence (chain (part 1 of 2), looked up): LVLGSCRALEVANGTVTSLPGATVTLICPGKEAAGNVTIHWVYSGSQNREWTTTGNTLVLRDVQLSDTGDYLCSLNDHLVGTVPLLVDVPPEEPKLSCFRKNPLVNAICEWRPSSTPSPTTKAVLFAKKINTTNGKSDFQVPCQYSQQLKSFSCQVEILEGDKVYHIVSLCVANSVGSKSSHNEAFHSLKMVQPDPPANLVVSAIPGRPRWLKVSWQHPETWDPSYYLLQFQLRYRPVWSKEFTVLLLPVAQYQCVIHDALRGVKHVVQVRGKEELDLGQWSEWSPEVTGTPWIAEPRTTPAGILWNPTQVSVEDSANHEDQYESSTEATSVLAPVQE
T3 sequence (chain (part 2 of 2), looked up): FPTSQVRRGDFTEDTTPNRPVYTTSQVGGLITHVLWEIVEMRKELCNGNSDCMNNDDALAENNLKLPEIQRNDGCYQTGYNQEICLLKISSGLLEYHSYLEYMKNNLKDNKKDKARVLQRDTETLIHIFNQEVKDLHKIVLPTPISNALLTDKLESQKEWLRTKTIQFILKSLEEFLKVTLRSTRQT
Description: as §3

[6] = molecular target: T2, recombinant human Hyper-IL-6 (HyIL-6), …; assay: indirect ELISA, HyIL-6 coated at 60 ng/well, four-parameter fit; coated human HyIL-6
Description: as §3

[7] = molecular target: T4, IL-6Rα (soluble IL-6 receptor alpha, R&D systems) (human, UniProt P08887 20-358); assay: ELISA, coated IL-6Rα (40 ng/well), serial dilution of purified C14mab [a]
T4 construct: also called IL-6 Ra; sIL-6Rα
T4 sequence (looked up): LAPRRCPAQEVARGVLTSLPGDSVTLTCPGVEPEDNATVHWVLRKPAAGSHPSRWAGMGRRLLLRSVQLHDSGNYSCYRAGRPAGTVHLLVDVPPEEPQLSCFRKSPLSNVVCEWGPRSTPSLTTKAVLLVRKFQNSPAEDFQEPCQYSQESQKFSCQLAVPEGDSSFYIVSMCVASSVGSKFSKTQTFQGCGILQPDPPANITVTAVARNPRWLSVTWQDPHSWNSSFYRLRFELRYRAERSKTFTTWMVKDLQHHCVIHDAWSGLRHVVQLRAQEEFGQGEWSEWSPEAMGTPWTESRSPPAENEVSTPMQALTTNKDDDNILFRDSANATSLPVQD
Description: as §3

recombinant human IL-6 [8] = molecular target: T5, recombinant human IL-6 (human, UniProt P05231 30-212); assay: indirect ELISA, IL-6 coated at 20 ng/well, four-parameter fit; coated IL-6
T5 construct: Bought protein (R&D systems); also called Interleukin-6
Description: as §3

recombinant human IL-6 [9] = molecular target: T5, recombinant human IL-6; assay: BLI (Octet), C14mab on anti-mouse Fc capture sensor, IL-6 1.56-25 nM, 1:1 global fit
Description: as §1, §2

EC50 (read off the curve) [1]: ~0.6 µg/mL | fold binding strength against IL-6 [2]: ~4 times | Kd [3]: 0.286 nM | koff [3]: 0.000144 s⁻¹ | kon [3]: 498000 M⁻¹ s⁻¹ | fold stronger EC50 than for IL-6 [4]: ~3.5 times | binding result [5]: no binding (tested: 10 µg/ml) | EC50 [6]: 0.0043 µg/mL | binding result [7]: no binding (tested: 10 µg/ml) | EC50 (recombinant human IL-6 [8]): 0.0153 µg/mL | Kd (recombinant human IL-6 [9]): 1.13 nM | koff (recombinant human IL-6 [9]): 0.000665 s⁻¹ | kon (recombinant human IL-6 [9]): 605000 M⁻¹ s⁻¹
B1: C14 monoclonal antibody (C14mab) (antibody, IgG1, V domains shown)
VH: EVNLEESGGGLVQPGGSMQLSCAASGFTFSDAWMDWVRQSPEKGLEWVAEVRTKGYYPVTFYAESVKGRFTISRDDSKSSVYLQMNSLRAEDTGIYYCTRPHYGYGYFDVWGAGTTVTVSS
VL: not shown
notes: Early experiments used the C14 hybridoma culture supernatant; also called C14 clone
